What was measured:
GFP-14-3-3β = GFP-14-3-3β co-IP with LC-MS/MS, untreated GFP-14-3-3β versus GFP control (14-3-3 interactome); type: binding, human; details: log2 difference; pairwise comparison untreated vs GFP, label-free quantification, 3 replicates each
[1] = test system: GFP-14-3-3β and its binding proteins; test: GFP-14-3-3β co-IP with LC-MS/MS label-free quantification, untreated versus PP1c-treated; set-up: species or system human; details: log2 difference; pairwise comparison PP1 vs untreated, label-free quantification, 3 replicates each

Difference (log2), PP1 vs untreated [1] | Molecule | Difference (log2), untreated vs GFP (GFP-14-3-3β)
1.432 | CKAP4 (protein, UniProt Q07065 1-602, looked up) Cytoskeleton-associated …: MPSAKQRGSKGGHGAASPSEKGAHPSGGADDVAKKPPPAPQQPPPPPAPHPQQHPQQHPQNQAHGKGGHRGGGGGGGKSSSSSSASAAAAAAAASSSASCSRRLGRALNFLFYLALVAAAAFSGWCVHHVLEEVQQVRRSHQDFSRQREELGQGLQGVEQKVQSLQATFGTFESILRSSQHKQDLTEKAVKQGESEVSRISEVLQKLQNEILKDLSDGIHVVKDARERDFTSLENTVEERLTELTKSINDNIAIFTEVQKRSQKEINDMKAKVASLEESEGNKQDLKALKEAVKEIQTSAKSREWDMEALRSTLQTMESDIYTEVRELVSLKQEQQAFKEAADTERLALQALTEKLLRSEESVSRLPEEIRRLEEELRQLKSDSHGPKEDGGFRHSEAFEALQQKSQGLDSRLQHVEDGVLSMQVASARQTESLESLLSKSQEHEQRLAALQGRLEGLGSSEADQDGLASTVRSLGETQLVLYGDVEELKRSVGELPSTVESLQKVQEQVHTLLSQDQAQAARLPPQDFLDRLSSLDNLKASVSQVEADLKMLRTAVDSLVAYSVKIETNENNLESAKGLLDDLRNDLDRLFVKVEKIHEKV | -0.6332
1.412 | SLC25A13 (protein, UniProt Q9UJS0 2-675, looked up) Electrogenic …: AAAKVALTKRADPAELRTIFLKYASIEKNGEFFMSPNDFVTRYLNIFGESQPNPKTVELLSGVVDQTKDGLISFQEFVAFESVLCAPDALFMVAFQLFDKAGKGEVTFEDVKQVFGQTTIHQHIPFNWDSEFVQLHFGKERKRHLTYAEFTQFLLEIQLEHAKQAFVQRDNARTGRVTAIDFRDIMVTIRPHVLTPFVEECLVAAAGGTTSHQVSFSYFNGFNSLLNNMELIRKIYSTLAGTRKDVEVTKEEFVLAAQKFGQVTPMEVDILFQLADLYEPRGRMTLADIERIAPLEEGTLPFNLAEAQRQKASGDSARPVLLQVAESAYRFGLGSVAGAVGATAVYPIDLVKTRMQNQRSTGSFVGELMYKNSFDCFKKVLRYEGFFGLYRGLLPQLLGVAPEKAIKLTVNDFVRDKFMHKDGSVPLAAEILAGGCAGGSQVIFTNPLEIVKIRLQVAGEITTGPRVSALSVVRDLGFFGIYKGAKACFLRDIPFSAIYFPCYAHVKASFANEDGQVSPGSLLLAGAIAGMPAASLVTPADVIKTRLQVAARAGQTTYSGVIDCFRKILREEGPKALWKGAGARVFRSSPQFGVTLLTYELLQRWFYIDFGGVKPMGSEPVPKSRINLPAPNPDHVGGYKLAVATFAGIENKFGLYLPLFKPSVSTSKAIGGGP | 0.4406
1.381 | DDOST (protein, UniProt P39656 43-456, looked up) Dolichyl-diphosphooligosacchar …: SGPRTLVLLDNLNVRETHSLFFRSLKDRGFELTFKTADDPSLSLIKYGEFLYDNLIIFSPSVEDFGGNINVETISAFIDGGGSVLVAASSDIGDPLRELGSECGIEFDEEKTAVIDHHNYDISDLGQHTLIVADTENLLKAPTIVGKSSLNPILFRGVGMVADPDNPLVLDILTGSSTSYSFFPDKPITQYPHAVGKNTLLIAGLQARNNARVIFSGSLDFFSDSFFNSAVQKAAPGSQRYSQTGNYELAVALSRWVFKEEGVLRVGPVSHHRVGETAPPNAYTVTDLVEYSIVIQQLSNGKWVPFDGDDIQLEFVRIDPFVRTFLKKKGGKYSVQFKLPDVYGVFQFKVDYNRLGYTHLYSSTQVSVRPLQHTQYERFIPSAYPYYASAFSMMLGLFIFSIVFLHMKEKEKSD | -0.4067
1.378 | ABCF2 (protein, UniProt Q9UG63 1-623, looked up) ATP-binding cassette …: MPSDLAKKKAAKKKEAAKARQRPRKGHEENGDVVTEPQVAEKNEANGRETTEVDLLTKELEDFEMKKAAARAVTGVLASHPNSTDVHIINLSLTFHGQELLSDTKLELNSGRRYGLIGLNGIGKSMLLSAIGKREVPIPEHIDIYHLTREMPPSDKTPLHCVMEVDTERAMLEKEAERLAHEDAECEKLMELYERLEELDADKAEMRASRILHGLGFTPAMQRKKLKDFSGGWRMRVALARALFIRPFMLLLDEPTNHLDLDACVWLEEELKTFKRILVLVSHSQDFLNGVCTNIIHMHNKKLKYYTGNYDQYVKTRLELEENQMKRFHWEQDQIAHMKNYIARFGHGSAKLARQAQSKEKTLQKMMASGLTERVVSDKTLSFYFPPCGKIPPPVIMVQNVSFKYTKDGPCIYNNLEFGIDLDTRVALVGPNGAGKSTLLKLLTGELLPTDGMIRKHSHVKIGRYHQHLQEQLDLDLSPLEYMMKCYPEIKEKEEMRKIIGRYGLTGKQQVSPIRNLSDGQKCRVCLAWLAWQNPHMLFLDEPTNHLDIETIDALADAINEFEGGMMLVSHDFRLIQQVAQEIWVCEKQTITKWPGDILAYKEHLKSKLVDEEPQLTKRTHNV | -0.5576
1.381 | ATAD3A (protein, UniProt Q9NVI7 2-586, looked up) ATPase family AAA …: SWLFGINKGPKGEGAGPPPPLPPAQPGAEGGGDRGLGDRPAPKDKWSNFDPTGLERAAKAARELEHSRYAKDALNLAQMQEQTLQLEQQSKLKEYEAAVEQLKSEQIRAQAEERRKTLSEETRQHQARAQYQDKLARQRYEDQLKQQQLLNEENLRKQEESVQKQEAMRRATVEREMELRHKNEMLRVEAEARARAKAERENADIIREQIRLKAAEHRQTVLESIRTAGTLFGEGFRAFVTDWDKVTATVAGLTLLAVGVYSAKNATLVAGRFIEARLGKPSLVRETSRITVLEALRHPIQVSRRLLSRPQDALEGVVLSPSLEARVRDIAIATRNTKKNRSLYRNILMYGPPGTGKTLFAKKLALHSGMDYAIMTGGDVAPMGREGVTAMHKLFDWANTSRRGLLLFVDEADAFLRKRATEKISEDLRATLNAFLYRTGQHSNKFMLVLASNQPEQFDWAINDRINEMVHFDLPGQEERERLVRMYFDKYVLKPATEGKQRLKLAQFDYGRKCSEVARLTEGMSGREIAQLAVSWQATAYASEDGVLTEAMMDTRVQDAVQQHQQKMCWLKAEGPGRGDEPSPS | -0.296
1.402 | CCDC124 (protein, UniProt Q96CT7 1-223, looked up) Coiled-coil domain-containing …: MPKKFQGENTKSAAARARRAEAKAAADAKKQKELEDAYWKDDDKHVMRKEQRKEEKEKRRLDQLERKKETQRLLEEEDSKLKGGKAPRVATSSKVTRAQIEDTLRRDHQLREAPDTAEKAKSHLEVPLEENVNRRVLEEGSVEARTIEDAIAVLSVAEEAADRHPERRMRAAFTAFEEAQLPRLKQENPNMRLSQLKQLLKKEWLRSPDNPMNQRAVPFNAPK | 0.7429
